Results reported in patent publication US7939057B2, “Methods and compositions for modulating the mobilization of stem cells” (Mount Sinai School of Medicine, priority 2006, dated 2011).

Legend:
α1(I) collagen = assay: Q-PCR of α1(I) collagen in BMNCs after G-CSF; format: in vivo; settings: bone marrow of Cgt+/+ mice after G-CSF; n=4, p<0.05
Description: Methods, primers and PCR conditions are available in Table S3. Briefly, total RNA was extracted from BMNC using TRIzol solution (Invitrogen, Carlsbad, Calif.). The bone carcass was then immersed in liquid nitrogen, and pulverized into powder followed by RNA extraction with TRIzol. Total RNA (1 μg) was treated with DNaseI (Invitrogen, Carlsbad, Calif.), and reverse transcribed using first strand cDNA synthesis with random primers (Promega, Madison, Wis.). Q-PCR was performed using SYBR Green (Molecular Probes) on an ABI PRISM 7900HT Sequence Detection System (Applied Biosystems, Foster city, CA). All experiments were done in triplicate and normalized to GAPDH.

NE = NE content in heart and bone after G-CSF (HPLC); format: in vivo, C57BL/6 mice
Description: Mice were sacrificed and hearts were rapidly removed, weighed, frozen in liquid nitrogen. Tissues were homogenized in HPLC solvent (0.1M TCA, which contains 10^−2 M sodium acetate, 10^−4 M EDTA and 10.5% methanol, pH 3.8). Hindlimb long bones were harvested, weighted, frozen in liquid nitrogen. Pooled bones were crushed using a bessman tissue pulverizer (Spectrum Laboratories) pre-chilled in a liquid nitrogen bath. Pulverized tissues were homogenized (620 mg/ml) in 0.4N HClO4 containing 0.84 mg/mL EDTA and 12.5 μL of 4% sodium pyrosulfite solution. Bone catecholamines were extracted using solid Al203 and then desorbed from the Al203 using 0.1 N acetic acid. NE levels were determined by HPLC at the Neurochemistry Core Lab, Vanderbilt University's Center for Molecular Neuroscience Research (Nashville, Tenn.).

[1] = tested on: hematopoietic stem and progenitor cells (HSPCs); assay: G-CSF-induced mobilization of hematopoietic progenitors (circulating CFU-C); format: in vivo, mice
Description: To induce HSPC mobilization, mice were injected with recombinant human G-CSF (Filgrastim, Amgen, Thousand Oaks, Calif., 250 μg/kg/day, every 12 hours, 8 divided doses, s.c.) in PBS supplemented with 0.1% endotoxin free bovine serum albumin (BSA) or fucoidan (Sigma; 2 doses of 100 mg/kg with 2 h interval, i.p.) in PBS. Blood was harvested 3 h (G-CSF) or 1 h (fucoidan). CFU-C assays were carried out as previously described (Katayama, Y., and Frenette, P. S. (2003). Galactocerebrosides are required postnatally for stromal-dependent bone marrow lymphopoiesis. Immunity 18, 789-800).
A chronic guide cannula (1.0 mm) was implanted stereotaxically into the lateral ventricle (coordinates AP, −0.7 mm; DV, −2.4 mm; ML, 1.5 mm, from bregma). One week after implantation, mice received a reduced dose of G-CSF (25 μg/kg daily for 4 doses) either by ICV infusion (rate: 0.4 μL/min) or by s.c. injection.
Newborn C57BL/6 mice were injected s.c. with 6OHDA (100 mg/kg, Sigma) or vehicle (saline) on postnatal days 2, 4, 6, 8 and 9. HSPC mobilization was induced at 3 weeks of age. For SNS disruption in adult C57BL6 mice, 4 week-old animals were injected i.p. with 2 doses of 6OHDA or vehicle, 100 mg/kg on day 0, 250 mg/kg on day 2, and G-CSF treatment was begun on day 5. For β-adrenergic receptor blockade, 4 week-old C57BL/6 mice were treated with propranolol (0.5 g/L in drinking water, Sigma) or control pure water for 3 weeks prior to mobilization. For rescue experiments, clenbuterol (2 mg/kg/day, i.p.) was injected starting day −2 prior to and continued during G-CSF treatment.

CXCL12 = CXCL12 protein by ELISA in BMEF and bone extracts after G-CSF; format: in vivo, mice
Description: CXCL12 ELISA was done exactly as described (Petit, I., Szyper-Kravitz, M., Nagler, A., Lahav, M., Peled, A., Habler, L., Ponomaryov, T., Taichman, R. S., Arenzana-Seisdedos, F., Fujii, N., et al. (2002). G-CSF induces stem cell mobilization by decreasing bone marrow SDF-1 and up-regulating CXCR4. Nat Immunol 3, 687-694). Mouse plasma osteocalcin was measured using ELISA kit (Biomedical Technologies Inc., Stoughton, Mass.) according to manufacturer's recommendation.
BMEF was obtained by flushing two femurs with one ml of ice-cold PBS, and the supernatant was harvested after 25 strokes of gentle pipetting followed by centrifugation at 400 g for 5 min. Bone protein extraction was performed as described (Pfeilschifter, J., Laukhuf, F., Muller-Beckmann, B., Blum, W. F., Pfister, T., and Ziegler, R. (1995). Parathyroid hormone increases the concentration of insulin-like growth factor-I and transforming growth factor beta I in rat bone. J Clin Invest 96, 767-774). After extraction, the samples were dialyzed extensively against cold PBS (pH 7.4) for 72 h with a dialysis cassette of 3500 MWCO (Pierce). Volume of dialyzed extracts was measured, centrifuged at 16,000 g for 15 min at 4° C., and the supernatants stored at −80° C. CXCL12 levels in BMEF and bone extracts were determined by ELISA.

rhCXCL12α = assay: Degradation of rhCXCL12α by BMEF of G-CSF-treated mice (Western blot); format: biochemical, human; settings: 24 h at 37° C.
Description: PBS or BMEF (35 μl) from G-CSF-treated and control mice was incubated with 50 ng of rhCXCL12α (R&D Systems) for 24 h at 37° C. The reactions were stopped by the addition of sample buffer containing protease inhibitor cocktail (Sigma) and DTT (final concentration 10 mM) followed by boiling for 5 min at 95° C. Samples were separated by electrophoresis on 16% polyacrylamide Tris-tricine gel and transferred onto PVDF membrane (0.2 μm pore size, Millipore, Bedford, Mass.). Membranes were blocked in TBS with 0.05% Tween 20 and 4% milk, incubated with 0.5 μg/ml of mouse monoclonal anti-CXCL12 antibody (clone 79018.111, R&D Systems) then with 1/20,000 dilution of horseradish peroxidase-anti-mouse IgG (Jackson Immunoresearch, West Grove, Pa.). Signal was detected with the enhanced chemiluminescence method (West Dura Extended Duration Substrate, Pierce, Rockford, Ill.).

B1: G-CSF: recombinant human G-CSF (Filgrastim, Amgen), hematopoietic cytokine used to elicit HSPC mobilization (protein, UniProt P09919 31-207, looked up)
Granulocyte …: TPLGPASSLPQSFLLKCLEQVRKIQGDGAALQEKLVSECATYKLCHPEELVLLGHSLGIPWAPLSSCPSQALQLAGCLSQLHSGLFLYQGLLQALEGISPELGPTLDTLQLDVADFATTIWQQMEELGMAPALQPTQGAMPAFASAFQRRAGGVLVASHLQSFLEVSYRVLRHLAQP
modifications: filgrastim
notes: recombinant human G-CSF (Filgrastim, Amgen), hematopoietic cytokine used to elicit HSPC mobilization
- α1(I) collagen, reduction (α1(I) collagen): 92%
- bone NE levels (NE; 3 h after G-CSF administration (250 μg/kg s.c.)): dramatic reduction
- cardiac NE levels (NE; single dose of G-CSF (250 μg/kg s.c.)): slightly reduced
- HSPC mobilization by route of G-CSF ([1]; C57BL/6 mice, ICV infusion vs s.c. injection, 25 μg/kg daily for 4 doses): robust HSPC mobilization occurred only when mice were treated systemically
- G-CSF-induced mobilization in chimeric mice ([1]; CD45.1 wild-type mice reconstituted with Cgt+/+ or −/− BM): similar
- G-CSF-induced mobilization of HSPCs ([1]; Cgt−/− mice compared to Cgt+/− or +/+ littermates): little mobilization
- G-CSF-triggered mobilization of CFU-Cs and Lin-Sca-1+c-kit+ cells ([1]; Dbh−/− compared to Dbh+/− littermates): dramatically compromised
- numbers of circulating progenitors after G-CSF ([1]; Lepr(db/db) vs Lepr(+/db) mice, human G-CSF 250 μg/kg/day, n=5): no difference
- circulating CFU-Cs elicited by G-CSF ([1]; Rag 1−/− and IL7Rα−/− mice, data not shown): elicited at levels similar to those of wild-type mice
- CXCL12 protein in BMEF (CXCL12; Cgt+/+ and +/− mice after G-CSF injection): greatly reduced
- CXCL12 protein in BMEF (CXCL12; Cgt−/− mice after G-CSF): significantly reduced
- CXCL12 protein levels in bone (CXCL12; Cgt−/− mice following G-CSF): no reduction
- CXCL12 in bone protein extracts (CXCL12; Dbh+/− mice following G-CSF): reduced
- CXCL12 levels in bone protein extracts (CXCL12; Dbh−/− animals following G-CSF): maintained
- CXCL12 protein in bone (CXCL12; normal littermate mice following G-CSF): decreased
- degradation of recombinant CXCL12 by BMEF (rhCXCL12α; BMEF from G-CSF-treated Cgt+/+ mice): completely degraded
- degradation of recombinant CXCL12 by BMEF (rhCXCL12α; BMEF from G-CSF-treated Cgt−/− mice): complete degradation
